Our source for the activity (mean GFP intensity), activity (% genomes circularized (or more)) and activity (arbitrary GFP intensity) values is patent US20070166286.

Experiment in all cases: cell_activity
The test system of one series is FLP recombinase. The note with it: substrate plasmid ad2879, 293 cells; 4.9 in Table 2 with vector control.
For the next series, the system named is FLPe (thermostable FLP). The note with it: substrate plasmid ad2879, 293 cells.
Series [1] relates to Cre recombinase (bacteriophage P1). The conditions noted are these: Ad2HCRGFP/EBV in HepG2, 72 h post infection, moi 1000.
The test system of series [2] is Cre-LBD (bacteriophage P1). The conditions noted are these: type B provirus pk8-ad4332, +tamoxifen; 4.1 without.
Series [3] has as its system LBD-Cre-LBD (bacteriophage P1). The conditions noted are these: type B provirus pk8-ad4626, +tamoxifen; 0.05 without.

As to FRT site, the activity (mean GFP intensity) in the series with FLP recombinase turned out to be 0.01; with FLPe (thermostable FLP), 2.39.

For the substance loxP site, in series [1], the activity (% genomes circularized (or more)) came out at 95. The values for the activity (arbitrary GFP intensity) in series [2] and in series [3] were 6 and 4.2, respectively.
